Source: the RNAGym collection of RNA variant scans (doi:10.1093/nar/gkz1192)

B1: CPEB3 Ribozyme (parent)
chain: UAACAGGGGGCCACAGCAGAAGCGUUCACGUCGCAGCCCCUGUCAGAUUCUGGUGAAUCUGCGAAUUCUGCUGUAUAUCUC

Variants of: B1
Assay: self-cleavage, relative activity (ratio to wild type); higher = more cleavage; in vitro, sequencing
Method in brief: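 Libraries of CPEB3 self-cleaving ribozyme mutants came from rounds of error-prone PCR and carried barcodes, which DNA sequencing matched to variants. In vitro transcription used T7 RNA polymerase at 37°C for 5 hours, with a further 15 min in DNase I before EDTA stopped the reaction; the ribozymes cleaved during both steps. The RNA was reverse transcribed with template switching and sequenced on Illumina. Relative activity is the cleaved/total read fraction of a variant divided by that of the unmutated ribozyme, averaged over three batches with at least 5 reads.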

Variant	self-cleavage
A47G A75U	1.11
A47G A75C	0.98
A47G A75G	0.88
G46A U78C	0.38
A45U C79U	0.77
A45U C79A	0.8
G46A A57G	0.16
A45G G70U	0.33
A45G G70A	0.42
G46A A47C	0.17
G46A A47U	0.24
A45G A64G	0.65
A45G A64U	0.3
A45G C59G	0.2
A45G C59A	0.63
A45G C59U	0.62
G46A A56G	0.25
A45G U76C	0.79
A45G U76A	0.96
A45G U76G	0.97
A45U U78G	0.65
A45U U78A	0.62
A45U U78C	0.44
A45U A64U	0.27

Variant	self-cleavage
A45U A64G	0.33
A45G G52U	0.94
A45G G52A	0.94
A45G G52C	0.91
A47C U76A	0.48
A45G G61C	0.23
A45G G61A	0.82
A47G C59G	0.35
A47G C59A	0.29
G46U A47G	0.15
A45G U67A	0.38
A45G U67C	0.34
G46U A77G	0.2
A45U U48C	0.34
A45U U48A	0.15
G46C U78C	0.21
A45G U78C	0.76
A45G U78G	0.81
A45G U78A	0.91
A47C U69C	0.25
A45C U76A	0.5
A45C U66C	0.31
G46A U49C	0.11
G46A U49A	0.33

Variant	self-cleavage
G46C U54A	0.15
A45U U54G	0.21
A45U U54A	0.51
A45U U54C	0.53
A47G A77U	1.06
A47G A77G	1.09
A47C U78G	0.46
A47C U78C	0.54
A47C U78A	0.51
A45U U60A	1.09
A45U U60G	0.68
A45U U60C	0.46
G46A G73A	0.99
G46A G63C	0.62
G46C U80A	0.2
G46U U49A	0.29
G46U U66C	0.16
A47C G63A	0.56
G46C U72A	0.25
G46U U48G	0.14
A47C G55U	0.16
A45U A75G	0.35
A45U A75U	0.55
A45U C50G	0.06

Variant	self-cleavage
A45U C50A	0.16
G46A A75G	0.25
A45C U67C	0.15
A45G C62U	0.22
A45G C62A	0.45
A45G C62G	0.25
A45C U78C	0.42
A47C A57G	0.5
A47G G70A	0.77
A45G C79G	1.12
A45G C79A	1.13
G46A U69C	0.07
A45G A56U	0.4
A45G A56C	0.39
A45G A56G	0.6
A45G A77C	0.48
A45G A77G	0.87
A45G A77U	0.9
A47C G73A	0.85
A47G G63C	0.93
A47G G63A	0.88
A45U U58C	0.29
A45U U58A	0.12
A47G C71U	0.87

Variant	self-cleavage
A45U G70A	0.29
G46A U54C	0.06
A45C U74G	0.68
A45C U74C	0.7
A45G C81U	1.07
A45G C81A	1.02
A45U G53A	0.68
A45U G53C	0.33
A45U G53U	0.58
A47G C79U	1.12
A45U A47U	0.24
A45U A47G	0.36
A45U A47C	0.22
A45U U80C	0.62
A45G U60G	0.25
A45G U60A	0.53
A45G U60C	1.13
A47G A65G	0.4
A47G A65U	0.49
A45U U76A	0.52
A45U U76C	0.49
A45C U80A	0.48
A45C U80C	0.4
A45U U74G	1.09

Variant	self-cleavage
A45U U74C	0.87
A45U U74A	1.03
A45U A56G	0.27
A45U A56U	0.23
A45U A56C	0.28
A47C A64U	0.45
A47C A64G	0.26
A47G C68A	0.43
A47G C68U	0.89
G46A U74C	0.48
G46A U76C	0.19
G46A U76A	0.5
G46U A57G	0.22
G46U A75C	0.37
G46U A75G	0.22
G46U U58C	0.17
G46U C68U	0.23
A45G A57G	0.66
A45G A57C	0.24
A45G A57U	0.43
A45U G55A	0.14
A45U G55U	0.24
A45U C81A	0.87
A45U C81U	0.46

Variant	self-cleavage
A47G G61C	0.35
A47G G61U	0.49
A47G G61A	0.61
G46U G53C	0.23
A45U C68G	0.25
A45U C68U	0.53
A47C A75U	0.3
A45U U69G	0.51
A45U U69C	0.31
A45U U69A	0.31
A47G G52A	1.25
G46A A65G	0.14
G46A A65U	0.43
A45U C62G	0.44
A45U C62A	0.17
A45U C62U	0.31
A45U C71A	0.1
A45U C71U	0.13
G46A U66C	0.25
A47G C62A	0.33
A47G C62U	0.3
A47C C59U	0.18
A47G G55A	0.75
A47G G55U	0.99

Variant	self-cleavage
A47G G55C	0.57
G46C A47G	0.26
A45G U66C	0.34
A45G U66A	0.41
G46A A64U	0.08
G46A A64G	0.19
A45G G73C	0.69
A45G G73U	1.29
A45G G73A	1.16
G46C A64U	0.11
A47C U51A	0.33
A45U A77G	0.52
A45U A77U	0.55
G46U U76C	0.38
A45U G46A	0.41
G46U U60A	0.38
G46U U60C	0.19
G46A U67C	0.15
G46A U67A	0.18
A45G G46U	0.21
A45G G46A	0.29
A47G A64U	0.34
A47G A64G	0.9
A45G A47U	0.28

Variant	self-cleavage
A45G A47G	0.46
A45G U49C	0.27
A45G U49A	0.42
A45G U49G	0.1
G46C U49A	0.04
A45G U69G	0.32
A45G U69A	0.42
A45G U69C	0.38
G46C U51A	0.25
A47C U67A	0.23
A47C U67C	0.12
A45U U66C	0.27
A45U U66A	0.31
A45U U66G	0.13
G46A U58C	0.38
A45G G63A	0.48
A45G G63U	0.74
G46A U60C	0.14
G46A U60A	0.5
A47G G73A	1.21
G46A U48C	0.26
A45U G63U	0.46
A45U G63A	0.54
A45U G63C	0.66

Variant	self-cleavage
A47G C50U	0.8
A47G C50A	0.59
G46U A65G	0.07
A45U G73U	1.2
A45U G73A	1.23
A45U A57C	0.35
A45U A57G	0.31
A45U A57U	0.33
A47C U80C	0.43
G46U G70A	0.08
A45U G52C	0.29
A47G C81U	1.04
A45G U54G	0.56
A45G U54A	0.85
A45G U54C	0.88
G46U A64G	0.16
G46U A64U	0.18
A47C C71U	0.13
A45G U80G	1.02
A45G U80C	0.91
A45G U80A	0.91
G46C U60A	0.11
G46C U60C	0.2
A45G U74G	1.21

Variant	self-cleavage
A45G U74C	1.1
A45G U74A	1.13
A45C U72C	0.49
A45C U72A	0.38
A47C U60A	0.15
G46U U72A	0.37
G46U U72G	0.25
G46U U72C	0.22
A45U U49A	0.17
A45U U49C	0.25
A45G U48C	0.29
A45G U48A	0.39
A45G U48G	0.19
G46C A56U	0.13
G46A U80C	0.37
G46A C68A	0.15
G46U U67A	0.23
G46U U67C	0.03
A45U U67A	0.24
A45U U67G	0.17
A45U U67C	0.27
A45G A65C	0.24
A45G A65G	0.35
A45G A65U	0.27

Variant	self-cleavage
A45C U69A	0.14
A45C U69C	0.27
A45G U51C	0.7
A45G U51A	0.74
A45G U51G	0.64
G46A A77U	0.48
G46A A77G	0.27
A45G C50U	0.74
A45G C50G	0.28
A47G A56C	0.95
A47G A56U	0.45
A47G A56G	0.71
G46U U69C	0.53
G46U U69A	0.22
G46U A56U	0.17
G46U A56G	0.18
G46U U54G	0.16
G46U U54C	0.14
G46U U80C	0.3
G46U U51C	0.28
A47C	0.4
A47G	1.01
G46U G73A	0.81
A45G U58C	0.31

Variant	self-cleavage
A45G U58A	0.31
A45G U58G	0.18
A47G G53A	1.18
A47G G53C	1.19
A45G U72C	0.98
A45G U72A	0.62
A45U U72C	0.5
A45U U72G	0.61
A45U U72A	0.39
A47G A57C	0.36
A47G A57G	0.51
A47G A57U	0.29
G46C U76C	0.5
G46C U76A	0.22
A45U A65U	0.18
A45U A65G	0.25
G46A C50U	0.17
G46A C50G	0.21
A47C C62U	0.18
A45G A75C	1.01
A45G A75G	0.77
A45G A75U	0.91
A47C U72A	0.26
G46U U78C	0.27

Variant	self-cleavage
A47C U74C	0.7
A47C A77G	0.34
A47C A65U	0.12
A45U U51A	0.33
A45U U51G	0.46
A45U U51C	0.48
G46U	0.28
G46A	0.33
G46C	0.32
A45U G61A	0.46
A45G C71U	0.65
A45G C71G	0.3
G46A U72C	0.32
A45G G55U	0.4
A45G G55C	0.67
A45G G55A	0.43
G46A G53A	0.45
A45G	0.85
A45U	0.51
G46U U74A	0.46
A45G C68U	0.88
A45G C68A	0.18
